Source: article doi:10.1101/483925
Positions count from the first letter of the chain named. Like-named read-outs stand apart in the source and are kept apart here.

Assays:
Assay in all cases: EMSA
[1] = molecular target: T1, FD-C_T282E;14-3-3nu (GRF7);FT (Arabidopsis thaliana;Arabidopsis …, UniProt Q84JK2;Q96300;Q9SXZ2 203-285;1-265;1-175, T282E||)
[2] = molecular target: FD-C_T282E;14-3-3nu (GRF7);TFL1 (Arabidopsis thaliana;Arabidopsis …, UniProt Q84JK2;Q96300;P93003 203-285;1-265;1-177, T282E||)
[3] = molecular target: T2, FD-C_T282E;14-3-3nu (GRF7) (Arabidopsis thaliana;Arabidopsis …, UniProt Q84JK2;Q96300 203-285;1-265, T282E|)
T2 sequence 1: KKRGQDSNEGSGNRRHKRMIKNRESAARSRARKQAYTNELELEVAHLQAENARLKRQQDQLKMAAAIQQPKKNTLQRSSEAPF
T2 sequence 2: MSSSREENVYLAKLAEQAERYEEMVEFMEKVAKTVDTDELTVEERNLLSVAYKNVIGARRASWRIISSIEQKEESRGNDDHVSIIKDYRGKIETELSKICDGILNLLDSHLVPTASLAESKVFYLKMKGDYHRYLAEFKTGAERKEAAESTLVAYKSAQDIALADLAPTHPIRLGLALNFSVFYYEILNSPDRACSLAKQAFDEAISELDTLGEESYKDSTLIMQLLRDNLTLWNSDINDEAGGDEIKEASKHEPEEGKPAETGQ

[4] = molecular target: T3, FD full-length (Arabidopsis thaliana, UniProt Q84JK2 1-285)
T3 sequence: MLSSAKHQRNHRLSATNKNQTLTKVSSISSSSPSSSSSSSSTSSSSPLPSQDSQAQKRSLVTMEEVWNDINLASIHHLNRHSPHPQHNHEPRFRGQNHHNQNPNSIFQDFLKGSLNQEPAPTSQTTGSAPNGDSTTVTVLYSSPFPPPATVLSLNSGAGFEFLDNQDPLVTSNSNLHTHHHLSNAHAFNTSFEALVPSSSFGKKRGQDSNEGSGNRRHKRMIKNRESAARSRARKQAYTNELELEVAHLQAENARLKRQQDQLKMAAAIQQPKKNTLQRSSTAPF

[5] = molecular target: T4, FD-C (Arabidopsis thaliana, UniProt Q84JK2 203-285)
T4 sequence: T2 sequence 1 with E80T

[6] = molecular target: T3, FD full-length; remark: listed apart in the source
[7] = molecular target: T5, FD T282E full-length (Arabidopsis thaliana, UniProt Q84JK2 1-285, T282E)
T5 sequence: T3 sequence with T282E

[8] = molecular target: T1, FD-C_T282E;14-3-3nu (GRF7);FT; remark: listed apart in the source
[9] = molecular target: FD-C;14-3-3nu (GRF7);TFL1 (Arabidopsis thaliana;Arabidopsis …, UniProt Q84JK2;Q96300;P93003 203-285;1-265;1-177, ||)
[10] = molecular target: T6, FD-C_T282E (Arabidopsis thaliana, UniProt Q84JK2 203-285, T282E)
T6 sequence: T2 sequence 1

Sequence of FD-C_T282E;14-3-3nu (GRF7);TFL1 (P93003 whole entry, stated change not applied, one chain of several): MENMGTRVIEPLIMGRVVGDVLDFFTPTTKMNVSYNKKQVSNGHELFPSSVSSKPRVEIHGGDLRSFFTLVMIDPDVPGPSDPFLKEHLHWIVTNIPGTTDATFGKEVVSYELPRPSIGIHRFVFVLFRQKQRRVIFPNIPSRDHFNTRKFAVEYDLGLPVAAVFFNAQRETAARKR
T1 sequence (Q9SXZ2 whole entry, stated change not applied, one chain of several): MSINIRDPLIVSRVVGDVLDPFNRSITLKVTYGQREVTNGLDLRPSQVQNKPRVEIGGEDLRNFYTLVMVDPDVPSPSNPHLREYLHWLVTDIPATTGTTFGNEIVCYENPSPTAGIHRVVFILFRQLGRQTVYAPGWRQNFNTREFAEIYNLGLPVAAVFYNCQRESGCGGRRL
Sequence of FD-C;14-3-3nu (GRF7);TFL1 (P93003 whole entry, one chain of several): as the sequence (P93003 whole entry, stated change not applied, one chain of several) above

B1: AP1 promoter site 2 (dsDNA)
DNA 1: TACCAATGAGAAGTCGACACGCAAATCCTA
DNA 2: TAGGATTTGCGTGTCGACTTCTCATTGGTA
B1: binds [1]; binds [2]; binds [3].

B2: SEP3 G-box CG to TA (CATATG) (dsDNA)
DNA 1: CGAGATGTCGACATATGTCCAAACTCAT
DNA 2: ATGAGTTTGGACATATGTCGACATCTCG
B2: no binding [4]; no binding [5].

B3: SEP3 promoter G-box probe (dsDNA)
DNA 1: CGAGATGTCGACACGTGTCCAAACTCAT
DNA 2: ATGAGTTTGGACACGTGTCGACATCTCG
B3: binds [6]; binds [7]; binds [8]. B3: binds [2]; binds [9]; binds [10]. B3: binds [3].

B4: SEP3 G-box CG to GC (CAGCTG) (dsDNA)
DNA 1: CGAGATGTCGACAGCTGTCCAAACTCAT
DNA 2: ATGAGTTTGGACAGCTGTCGACATCTCG
B4: binds [4]; binds [5].

B5: SEP3 G-box to C-box (GACGTC) (dsDNA)
DNA 1: CGAGATGTCGAGACGTCTCCAAACTCAT
DNA 2: ATGAGTTTGGAGACGTCTCGACATCTCG
B5: no binding [4]; no binding [5].
